Usually Vmax stands for the rate approached at saturating substrate. Usually kcat stands for the maximal rate divided by the concentration of active sites. What is called Km is the concentration of substrate that gives half-maximal velocity.

Common to all, as to type: biochemical, rat
For series [1], the system named is phospho-Ser137-DARPP-32. In words: Dephosphorylation of phospho-Ser137-DARPP-32 by recombinant PP2C isoforms. As to conditions: phospho-Ser137-DARPP-32 as substrate; Mn^2+ or Mg^2+.
The nature of series [2]: pNPP hydrolysis by recombinant PP2C isoforms (phosphatase assay). The following applies: for Vmax / kcat / Km: pNPP as substrate; for Km: 37° C. How it is done: The activity of PP2C isoforms using pNPP as substrate was assayed as previously described (Brumel et al., 1997). […] The reaction was stopped by addition of 1 ml of 0.1 M NaOH, and the initial rate of p-nitrophenol release was determined spectrophotometrically at 405 nm (using a molar extinction coefficient of 18 000 M−1 cm−1).
(§1) Kinetic parameters (Km and Vmax) were determined from Lineweaver-Burk plots.
Legend Table 7. Enzymatic activities of PP2C isoforms assayed using pNPP as substrate. Phosphatase activity was measured using pNPP as substrate by the change in absorbance at 405 nm. Km and Vmax values were calculated from Lineweaver-Burk plots of the data.

Series [3] deals with phospho-Ser137-DARPP-32. In words: Dephosphorylation of phospho-Ser137-DARPP-32 by recombinant PP2C isoforms. As to conditions: [^32P]phospho-Ser137 DARPP-32 as substrate; in the presence of 10 mM Mn^2+. The protocol:
The activity of PP2C isoforms using ^32P-DARPP (phosphorylated at Ser137) was assayed at 37° C. in a reaction mixture containing 25 mM Tris-HCl, pH 7.5, 10 mM MnCl2, 1% BSA, and […] substrate, in a total volume of […]. Reactions were stopped by addition of […] of 50% trichloroacetic acid. Samples were then incubated on ice for 30 min and centrifuged at 10,000 g for 10 min at 4° C. Radioactivity recovered in the supernatant was measured by Cerenkov counting in a scintillation counter (Beckman).
as §1
Legend Table 8. Enzymatic activities of PP2C isoforms assayed using [^32P]phospho-Ser137 DARPP-32 as substrate. Phosphatase activity was measured by the release of ^32P, and Km and Vmax values were calculated from Lineweaver-Burk plots of the data.

B1: PP2Ca: recombinant his-tagged alpha isoform of protein phosphatase 2C cloned from rat striatum (protein)
chain: MGAFLDKPKMEKHNAQGQGNGLRYGLSSMQGWRVEMEDAHTAVIGLPSGLETWSFFAVYDGHAGSQVAKYCCEHLLDHITNNQDFKGSAGAPSVENVKNGIRTGFLEIDEHMRVMSEKKHGADRSGSTAVGVLISPQHTYFINCGDSRGLLCRNRKVHFFTQDHKPSNPLEKERIQNAGGSVMIQRVNGSLAVSRALGDFDYKCVHGKGPTEQLVSPEPEVHDIERSEEDDQFIILACDGIWDVMGNEELCDFVRSRLEVTDDLEKVCNEVVDTCLYKGSRDNMSVILICFPNAPKVSAEAVKKEAELDKYLENRVEEIIKKQGEGVPDLVHVMRTLASENIPSLPPGGELASKRNVIEAVYNRLNPYKNDDTDSASTDDMW
modifications: left off: small tags and cut ends
notes: recombinant his-tagged alpha isoform of protein phosphatase 2C cloned from rat striatum
Take B1: the “divalent cation concentration for maximal activity” value in the series with phospho-Ser137-DARPP-32 [1] fell in the range of 4 to 5 mM. For the same molecule, the “Vmax of pNPP hydrolysis, Mn^2+ compared to Mg^2+ (higher)” value in series [2] (20 mM Mn^2+ versus 20 mM Mg^2+) is “approximately 50 fold”. Also, in series [2] (in the presence of 20 mM Mg^2+), the Vmax came to 0.20 µmol/mg/min, the kcat came out at 0.16 s⁻¹ and the Km is 3100 µM. Moreover, in series [2] (in the presence of 20 mM Mn^2+), the Vmax was 7.49 µmol/mg/min, the kcat was found to be 5.83 s⁻¹ and the Km amounted to 1530 µM. Moreover, in the series with phospho-Ser137-DARPP-32 [3], the Km amounted to 13.1 µM, the Vmax was 0.39 µmol/mg/min and the kcat is 0.31 s⁻¹.

Values taken from US7320785B2, “Compositions and methods for modulation of DARPP-32 phosphorylation” (The Rockefeller University, priority 2001, dated 2008).
